Experiments:
Experiment in all cases: SEC
[1] = molecular target: Chimera 1 (Pfu1-Pfu2-Ton3) (Pyrococcus furiosus | Thermococcus onnurineus)
[2] = molecular target: Chimera 2 (Pfu1-Ton2-Pfu3) (Pyrococcus furiosus | Thermococcus onnurineus)
[3] = molecular target: Chimera 3 (Ton1-Ton2-Pfu3) (Thermococcus onnurineus | Pyrococcus furiosus)
[4] = molecular target: Chimera 4 (Ton1-Pfu2-Ton3) (Thermococcus onnurineus | Pyrococcus furiosus)
[5] = molecular target: Chimera 5 (Pfu1-Ton2-Ton3) (Pyrococcus furiosus | Thermococcus onnurineus)
[6] = molecular target: Chimera 6 (Ton1-Pfu2-Pfu3) (Thermococcus onnurineus | Pyrococcus furiosus)
[7] = molecular target: Domain 1 of PfuAmyGT (Pfu1) (Pyrococcus furiosus)
[8] = molecular target: the molecule itself

For Chimera 1 (Pfu1-Pfu2-Ton3) (enzyme), the stoichiometry N [1] was 2.

In the case of Chimera 2 (Pfu1-Ton2-Pfu3) (enzyme), the stoichiometry N [2] is reported as 2.

Chimera 3 (Ton1-Ton2-Pfu3) (enzyme) was tested, and the stoichiometry N [3] was 2.

Work on Chimera 4 (Ton1-Pfu2-Ton3) (enzyme) yielded a stoichiometry N [4] of 2.

In the case of Chimera 5 (Pfu1-Ton2-Ton3) (enzyme), the stoichiometry N [5] is reported as 2.

In the case of Chimera 6 (Ton1-Pfu2-Pfu3) (enzyme), the stoichiometry N [6] is reported as 2.

With “Domain 1 of PfuAmyGT (Pfu1) (domain or fragment)” the stoichiometry N [7] was 4.

B1: PfuAmyGT (Pfu1-Pfu2-Pfu3), GH57 4-α-glucanotransferase from Pyrococcus furiosus (enzyme)
chain: MGDKINFIFGIHNHQPLGNFGWVFEEAYEKCYWPFLETLEEYPNMKVAIHTSGPLIEWLQDNRPEYIDLLRSLVKRGQVEIVVAGFYEPVLASIPKEDRIEQIRLMKEWAKSIGFDARGVWLTERVWQPELVKTLKESGIDYVIVDDYHFMSAGLSKEELYWPYYTEDGGEVIAVFPIDEKLRYLIPFRPVDKVLEYLHSLIDGDESKVAVFHDDGEKFGIWPGTYEWVYEKGWLREFFDRISSDEKINLMLYTEYLEKYKPRGLVYLPIASYFEMSEWSLPAKQARLFVEFVNELKVKGIFEKYRVFVRGGIWKNFFYKYPESNYMHKRMLMVSKLVRNNPEARKYLLRAQCNDAYWHGLFGGVYLPHLRRAIWNNLIKANSYVSLGKVIRDIDYDGFEEVLIENDNFYAVFKPSYGGSLVEFSSKNRLVNYVDVLARRWEHYHGYVESQFDGVASIHELEKKIPDEIRKEVAYDKYRRFMLQDHVVPLGTTLEDFMFSRQQEIGEFPRVPYSYELLDGGIRLKREHLGIEVEKTVKLVNDGFEVEYIVNNKTGNPVLFAVELNVAVQSIMESPGVLRGKEIVVDDKYAVGKFALKFEDEMEVWKYPVKTLSQSESGWDLIQQGVSYIVPIRLEDKIRFKLKFEEASG
For B1, the “stoichiometry N” value [8] was 2.

From publication doi:10.1101/2023.08.25.554918 (bioRxiv, 2023)
